Molecular target: T1, Pablo (pro-apoptotic Bcl-XL binding protein) (human, UniProt Q92558 1-559)
T1 sequence: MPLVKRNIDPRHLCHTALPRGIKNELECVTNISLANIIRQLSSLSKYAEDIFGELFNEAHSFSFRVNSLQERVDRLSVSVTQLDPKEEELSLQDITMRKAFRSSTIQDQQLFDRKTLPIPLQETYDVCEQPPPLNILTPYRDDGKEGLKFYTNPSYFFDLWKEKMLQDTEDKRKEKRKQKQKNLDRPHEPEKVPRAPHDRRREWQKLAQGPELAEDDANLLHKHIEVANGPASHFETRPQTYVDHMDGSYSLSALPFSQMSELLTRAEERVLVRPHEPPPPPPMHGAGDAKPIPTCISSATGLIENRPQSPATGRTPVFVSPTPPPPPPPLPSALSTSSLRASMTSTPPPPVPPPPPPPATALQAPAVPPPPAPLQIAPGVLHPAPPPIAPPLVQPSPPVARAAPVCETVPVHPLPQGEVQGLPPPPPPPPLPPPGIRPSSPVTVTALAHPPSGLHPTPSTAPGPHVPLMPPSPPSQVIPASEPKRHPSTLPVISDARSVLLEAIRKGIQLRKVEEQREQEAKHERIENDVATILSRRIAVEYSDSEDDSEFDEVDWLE
Experiment: yeast two-hybrid assay

B1: pancortin 1 (other)
chain: MITNWMSQTLPSLVGLNTTKLSAAGGGTLDRSTGVLPTNPEESWQVYSSAQDSEGRCICTVVAPQQTMCSRDARTKQLRQLLEKVQNMSQSIEVLDRRTQRDLQYVEKMENQMKGLESKFKQVEESHKQHLARQFKAIKAKMDELRPLIPVLEEYKADAKLVLQFKEEVQNLTSVLNELQEEIGAYDYDELQSRVSNLEERLRACMQKLACGKLTGISDPVTVKTSGSRFGSWMTDPLAPEGDNRVWYMDGYHNNRFVREYKSMVDFMNTDNFTSHRLPHPWSGTGQVVYNGSIYFNKFQSHIIIRFDLKTETILKTRSLDYAGYNNMYHYAWGGHSDIDLMVDESGLWAVYATNQNAGNIVVSRLDPVSLQTLQTWNTSYPKRSAGEAFIICGTLYVTNGYSGGTKVHYAYQTNASTYEYIDIPFQNKYSHISMLDYNPKDRALYAWNNGHQILYNVTLFHVIRSDEL
notes: Tested in a yeast two-hybrid assay; also called BMZ
B1: no binding.

Reference: patent US20030215852A1 (Pfizer, published 2003)
